Earlier results, collected in paper PMC7380111.

Assays:
NRP2 (Homo sapiens) = NRP2 (Homo sapiens) (UniProt O60462)
NRP1 (Homo sapiens) = NRP1 (Homo sapiens) (UniProt O14786)
Chain of UniProt O14786 (O14786 22-923): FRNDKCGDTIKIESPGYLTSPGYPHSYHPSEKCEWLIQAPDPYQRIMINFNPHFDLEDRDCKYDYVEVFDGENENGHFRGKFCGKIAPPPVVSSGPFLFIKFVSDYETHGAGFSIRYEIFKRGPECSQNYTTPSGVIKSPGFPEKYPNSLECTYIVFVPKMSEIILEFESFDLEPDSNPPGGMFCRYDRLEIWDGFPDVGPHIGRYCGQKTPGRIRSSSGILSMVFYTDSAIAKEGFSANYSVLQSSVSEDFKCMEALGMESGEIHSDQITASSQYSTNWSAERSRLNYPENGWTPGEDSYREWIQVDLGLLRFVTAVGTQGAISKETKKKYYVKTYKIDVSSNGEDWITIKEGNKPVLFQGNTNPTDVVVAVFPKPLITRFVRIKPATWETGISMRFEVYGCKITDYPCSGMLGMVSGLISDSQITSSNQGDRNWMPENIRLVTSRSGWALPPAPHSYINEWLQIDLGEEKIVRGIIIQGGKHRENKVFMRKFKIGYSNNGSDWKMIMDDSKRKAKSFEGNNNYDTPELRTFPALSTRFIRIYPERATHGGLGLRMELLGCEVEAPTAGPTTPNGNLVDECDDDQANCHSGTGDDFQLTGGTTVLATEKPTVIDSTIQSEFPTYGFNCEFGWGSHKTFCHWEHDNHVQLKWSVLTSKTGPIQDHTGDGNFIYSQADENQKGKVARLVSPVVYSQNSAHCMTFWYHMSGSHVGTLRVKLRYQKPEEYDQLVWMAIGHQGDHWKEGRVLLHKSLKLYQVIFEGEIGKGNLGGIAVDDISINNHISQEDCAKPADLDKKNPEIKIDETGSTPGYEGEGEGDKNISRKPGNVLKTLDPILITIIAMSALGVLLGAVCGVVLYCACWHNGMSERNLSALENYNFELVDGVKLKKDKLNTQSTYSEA

Chain of UniProt O60462 (O60462 21-931): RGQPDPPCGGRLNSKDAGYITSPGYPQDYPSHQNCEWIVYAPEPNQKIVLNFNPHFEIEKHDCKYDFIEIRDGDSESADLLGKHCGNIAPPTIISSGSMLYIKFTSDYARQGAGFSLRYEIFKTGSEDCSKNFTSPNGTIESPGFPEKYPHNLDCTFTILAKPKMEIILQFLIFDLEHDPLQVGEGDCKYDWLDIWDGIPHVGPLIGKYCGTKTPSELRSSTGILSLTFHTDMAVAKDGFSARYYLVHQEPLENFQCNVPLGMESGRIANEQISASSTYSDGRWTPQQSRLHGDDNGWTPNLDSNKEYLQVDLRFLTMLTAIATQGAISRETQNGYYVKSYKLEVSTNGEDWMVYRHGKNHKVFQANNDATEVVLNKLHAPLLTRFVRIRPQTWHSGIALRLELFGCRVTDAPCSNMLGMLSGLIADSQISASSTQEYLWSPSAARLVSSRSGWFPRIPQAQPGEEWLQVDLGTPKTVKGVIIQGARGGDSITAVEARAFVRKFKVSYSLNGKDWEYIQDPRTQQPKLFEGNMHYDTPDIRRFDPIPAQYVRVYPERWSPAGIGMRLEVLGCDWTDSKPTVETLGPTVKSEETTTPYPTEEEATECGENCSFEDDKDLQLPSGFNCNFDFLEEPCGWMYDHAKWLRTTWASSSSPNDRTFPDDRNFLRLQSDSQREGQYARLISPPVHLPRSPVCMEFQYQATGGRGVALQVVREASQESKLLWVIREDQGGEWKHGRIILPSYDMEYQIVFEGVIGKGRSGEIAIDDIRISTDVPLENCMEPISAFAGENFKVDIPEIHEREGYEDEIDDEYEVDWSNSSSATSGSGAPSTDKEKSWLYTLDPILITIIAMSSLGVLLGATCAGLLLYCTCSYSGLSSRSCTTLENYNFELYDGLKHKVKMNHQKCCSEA

Q: For VEGF165 (from UniProt P15692), which Kd (NRP2 (Homo sapiens)) is on record?
A: 5 nM

Q: And the Kd (NRP1 (Homo sapiens))?
A: 0.2 nM
